{"source": "IntAct's records for PubMed 18615013", "parents": {"B1": {"name": "Aurora kinase A (Homo sapiens), O14965 (parent)", "chain": "MDRSKENCISGPVKATAPVGGPKRVLVTQQFPCQNPLPVNSGQAQRVLCPSNSSQRIPLQAQKLVSSHKPVQNQKQKQLQATSVPHPVSRPLNNTQKSKQPLPSAPENNPEEELASKQKNEESKKRQWALEDFEIGRPLGKGKFGNVYLAREKQSKFILALKVLFKAQLEKAGVEHQLRREVEIQSHLRHPNILRLYGYFHDATRVYLILEYAPLGTVYRELQKLSKFDEQRTATYITELANALSYCHSKRVIHRDIKPENLLLGSAGELKIADFGWSVHAPSSRRTTLCGTLDYLPPEMIEGRMHDEKVDLWSLGVLCYEFLVGKPPFEANTYQETYKRISRVEFTFPDFVTEGARDLISRLLKHNPSQRPMLREVLEHPWITANSSKPSNCQNKESASKQS"}}}
{"variants_of": "B1", "conditions": "with plk1_human PLK1, P53350"}
{"variant": "K162R", "effect of a mutation on the interaction": "disrupting interaction"}
